# Measurements published in US6881404.
# Target: T1, P-selectin glycoprotein ligand-1 (UniProt Q14242)
# T1 sequence: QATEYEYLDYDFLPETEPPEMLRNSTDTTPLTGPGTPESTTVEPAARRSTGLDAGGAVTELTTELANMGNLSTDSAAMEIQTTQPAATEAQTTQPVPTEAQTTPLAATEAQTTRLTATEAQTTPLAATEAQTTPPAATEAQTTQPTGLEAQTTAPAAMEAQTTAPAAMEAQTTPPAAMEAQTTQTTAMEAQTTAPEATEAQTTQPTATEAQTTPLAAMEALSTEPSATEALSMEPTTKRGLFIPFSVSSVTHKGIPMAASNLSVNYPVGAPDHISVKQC
substance,measurement,value
"mocarhagin purified from the venom of the Mozambiquan spitting cobra, Naja mossambica mossambica",proteolytic cleavage of PSGL-1,Mocarhagin cleaves a ten amino acid peptide from the mature N-terminus of PSGL-1 and abolishes the ability of PSGL-1 to bind P-selectin
